In assay [1] the target is T1, biotinylated human DLL3 protein expressed as a human IgG1 fusion protein (human, UniProt Q9NYJ7 27-492, limits assumed, biotinylated).
T1 sequence: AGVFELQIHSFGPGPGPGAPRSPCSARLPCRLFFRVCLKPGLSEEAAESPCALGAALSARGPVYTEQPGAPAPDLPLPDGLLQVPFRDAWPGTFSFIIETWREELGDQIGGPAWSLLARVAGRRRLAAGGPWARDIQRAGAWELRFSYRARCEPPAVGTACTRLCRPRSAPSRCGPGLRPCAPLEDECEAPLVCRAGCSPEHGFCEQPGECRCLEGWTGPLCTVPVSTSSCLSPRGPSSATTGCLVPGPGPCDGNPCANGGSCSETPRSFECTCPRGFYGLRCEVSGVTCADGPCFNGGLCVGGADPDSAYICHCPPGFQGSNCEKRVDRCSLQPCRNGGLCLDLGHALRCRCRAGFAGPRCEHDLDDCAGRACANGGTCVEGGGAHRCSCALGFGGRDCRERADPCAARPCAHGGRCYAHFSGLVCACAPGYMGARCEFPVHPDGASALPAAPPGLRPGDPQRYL
The assay can be described thus: Octet BLI, single 50 nM. In a few lines:
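Read-out is binding affinity to human DLL3. Conditioned medium containing a known amount of each trispecific protein was run against the immobilised biotinylated DLL3 fusion.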
For orientation: In BLI a coated tip is dipped into the sample, and binding shifts an interference pattern.

Assay [2] deals with T2, human DLL3 on DLL3-expressing tumor cell lines (human, UniProt Q9NYJ7 27-618).
T2 sequence: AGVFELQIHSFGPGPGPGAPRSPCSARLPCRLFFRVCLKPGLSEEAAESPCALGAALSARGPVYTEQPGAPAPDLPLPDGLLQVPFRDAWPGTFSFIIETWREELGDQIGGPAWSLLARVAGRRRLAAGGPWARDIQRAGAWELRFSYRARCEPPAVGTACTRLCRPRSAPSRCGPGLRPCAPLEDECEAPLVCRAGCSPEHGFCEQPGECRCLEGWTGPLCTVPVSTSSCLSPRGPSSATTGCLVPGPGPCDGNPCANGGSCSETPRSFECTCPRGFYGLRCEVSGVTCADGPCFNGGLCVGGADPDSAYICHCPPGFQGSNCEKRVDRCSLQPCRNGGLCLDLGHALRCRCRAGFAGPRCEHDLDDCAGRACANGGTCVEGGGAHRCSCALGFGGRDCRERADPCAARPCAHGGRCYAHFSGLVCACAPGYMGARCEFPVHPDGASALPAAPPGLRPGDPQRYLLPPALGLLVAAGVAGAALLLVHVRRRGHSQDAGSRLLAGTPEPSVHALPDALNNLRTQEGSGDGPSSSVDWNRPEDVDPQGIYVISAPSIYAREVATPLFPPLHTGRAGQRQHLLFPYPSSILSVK
Kind of assay: cell-based or functional assay.

A further assay addresses T3, cynomolgus DLL3 (cynomolgus, UniProt A0A2K5WSR1 27-490).
T3 construct: also called cyDLL3
T3 sequence: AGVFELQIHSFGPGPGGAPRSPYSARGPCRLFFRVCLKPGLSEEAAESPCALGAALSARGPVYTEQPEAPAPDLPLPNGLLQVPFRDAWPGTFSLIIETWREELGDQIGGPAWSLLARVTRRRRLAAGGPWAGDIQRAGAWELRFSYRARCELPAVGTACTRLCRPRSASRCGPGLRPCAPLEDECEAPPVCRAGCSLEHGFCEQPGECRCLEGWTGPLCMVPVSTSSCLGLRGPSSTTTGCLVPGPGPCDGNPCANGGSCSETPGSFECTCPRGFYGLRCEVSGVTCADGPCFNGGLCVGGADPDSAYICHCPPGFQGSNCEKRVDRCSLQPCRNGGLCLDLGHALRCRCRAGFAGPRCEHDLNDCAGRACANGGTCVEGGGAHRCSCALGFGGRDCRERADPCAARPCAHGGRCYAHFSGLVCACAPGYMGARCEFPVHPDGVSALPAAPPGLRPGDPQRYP
Kind of assay: Octet BLI, single 60 nM.

For assay [3], the target named is T1, biotinylated human DLL3 protein …. The assay can be described thus: Octet BLI, 60/20/6.67/2.22 nM. The method, then:
Using the conditioned medium with known concentrations of the anti-DLL3 trispecific proteins, the binding affinities of the anti-DLL3 trispecific proteins toward human DLL3 protein were measured using a method where biotinylated version of human DLL3 protein were expressed as a human IgG1 fusion protein, and the binding affinity measurement was carried out in an Octet instrument with streptavidin tips.

Assay [4] concerns the target T2, human DLL3 on DLL3-expressing tumor …. The assay can be described thus: cell-based or functional assay. This is another data set of the same source.
Assay [5] has the same target. Kind of assay: cell-based or functional assay. This is another data set of the same source.
Assay [6] deals with T4, anti-DLL3 trispecific protein containing the parental DLL3 binder DH6.
T4 construct: trispecific, one chain
Kind of assay: Octet BLI; biotinylated purified CHO trispecific on streptavidin tips; 60, 20, 6.67, 2.22 nM.

For assay [7], the target named is T5, anti-DLL3 trispecific protein with DLL3 binding sequence 51X5.
T5 construct: trispecific, one chain
The description is as above.

In assay [8] the target is T6, anti-DLL3 trispecific protein with DLL3 binding domain 51A05.
T6 construct: trispecific, one chain; also called 51A5
The description is as above.

The target of assay [9] is T7, anti-DLL3 trispecific protein with DLL3 binding domain 52C04.
T7 construct: trispecific, one chain; also called 52C4
The description is as above.

Assay [10] concerns the target T8, anti-DLL3 trispecific protein with DLL3 binding domain 51H05.
T8 construct: trispecific, one chain; also called 51H5
Described as above.

The target in assay [11] is T9, anti-DLL3 trispecific protein with DLL3 binding domain 52B01.
T9 construct: trispecific, one chain; also called 52B1
The description is as above.

Assay [12] has as its target T10, anti-DLL3 trispecific protein with DLL3 binding domain 51F03.
T10 construct: trispecific, one chain; also called 51F3
The description is as above.

The target of assay [13] is T11, anti-DLL3 trispecific protein with DLL3 binding domain 52D04.
T11 construct: trispecific, one chain; same domain order as the TAC protein m79; also called 52D4
The assay is described as above.

Assay [14] concerns the target T12, anti-DLL3 trispecific protein with DLL3 binding domain 51G02.
T12 construct: trispecific, one chain; also called 51G2
The description is as above.

Assay [15] addresses T13, anti-DLL3 trispecific protein with DLL3 binding domain 51G10.
T13 construct: trispecific, one chain
Described as above.

Where a chain is given by its changes, count along the chain named. Like-named read-outs stand apart in the source and are kept apart here.

T10 sequence (chain, as listed by the source): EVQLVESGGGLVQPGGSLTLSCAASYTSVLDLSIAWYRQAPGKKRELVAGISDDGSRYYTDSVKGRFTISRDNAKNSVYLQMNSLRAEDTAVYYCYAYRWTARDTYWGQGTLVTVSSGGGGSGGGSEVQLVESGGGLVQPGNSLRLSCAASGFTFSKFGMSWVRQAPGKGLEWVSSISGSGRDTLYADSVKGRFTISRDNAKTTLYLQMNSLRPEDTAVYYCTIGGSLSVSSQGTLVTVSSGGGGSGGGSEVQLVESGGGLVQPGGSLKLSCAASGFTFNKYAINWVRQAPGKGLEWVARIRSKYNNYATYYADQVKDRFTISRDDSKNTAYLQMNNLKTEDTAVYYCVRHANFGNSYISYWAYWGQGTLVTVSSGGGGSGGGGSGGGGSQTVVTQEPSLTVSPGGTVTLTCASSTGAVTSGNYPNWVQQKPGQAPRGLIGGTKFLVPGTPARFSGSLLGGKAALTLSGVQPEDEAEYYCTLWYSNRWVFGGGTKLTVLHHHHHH
T8 sequence (chain, as listed by the source): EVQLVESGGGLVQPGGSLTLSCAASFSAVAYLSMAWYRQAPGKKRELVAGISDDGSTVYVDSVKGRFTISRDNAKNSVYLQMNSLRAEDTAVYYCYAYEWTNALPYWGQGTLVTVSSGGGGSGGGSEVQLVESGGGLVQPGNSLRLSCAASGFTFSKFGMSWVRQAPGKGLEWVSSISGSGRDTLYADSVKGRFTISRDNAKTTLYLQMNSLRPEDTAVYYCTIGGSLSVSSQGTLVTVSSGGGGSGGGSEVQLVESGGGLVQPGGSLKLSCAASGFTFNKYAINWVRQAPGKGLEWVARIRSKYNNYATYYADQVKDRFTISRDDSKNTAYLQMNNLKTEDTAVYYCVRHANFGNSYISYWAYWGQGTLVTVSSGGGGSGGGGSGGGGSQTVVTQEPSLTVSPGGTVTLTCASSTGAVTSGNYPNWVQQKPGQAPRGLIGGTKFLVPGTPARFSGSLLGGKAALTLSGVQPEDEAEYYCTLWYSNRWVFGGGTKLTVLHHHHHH
T7 sequence (chain, as listed by the source): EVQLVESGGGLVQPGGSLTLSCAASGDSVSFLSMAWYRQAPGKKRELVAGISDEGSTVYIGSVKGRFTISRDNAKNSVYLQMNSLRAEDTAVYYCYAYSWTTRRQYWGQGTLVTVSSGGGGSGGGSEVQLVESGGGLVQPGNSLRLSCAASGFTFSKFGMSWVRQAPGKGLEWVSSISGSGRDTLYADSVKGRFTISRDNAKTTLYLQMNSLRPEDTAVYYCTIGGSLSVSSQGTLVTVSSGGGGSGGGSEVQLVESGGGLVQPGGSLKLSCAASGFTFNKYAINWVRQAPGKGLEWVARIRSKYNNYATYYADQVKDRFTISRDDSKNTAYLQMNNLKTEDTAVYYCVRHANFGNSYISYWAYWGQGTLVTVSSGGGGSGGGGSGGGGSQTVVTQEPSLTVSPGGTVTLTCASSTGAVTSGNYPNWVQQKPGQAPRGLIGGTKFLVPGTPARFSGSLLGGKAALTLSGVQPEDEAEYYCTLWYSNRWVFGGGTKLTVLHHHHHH
T11 sequence (chain, as listed by the source): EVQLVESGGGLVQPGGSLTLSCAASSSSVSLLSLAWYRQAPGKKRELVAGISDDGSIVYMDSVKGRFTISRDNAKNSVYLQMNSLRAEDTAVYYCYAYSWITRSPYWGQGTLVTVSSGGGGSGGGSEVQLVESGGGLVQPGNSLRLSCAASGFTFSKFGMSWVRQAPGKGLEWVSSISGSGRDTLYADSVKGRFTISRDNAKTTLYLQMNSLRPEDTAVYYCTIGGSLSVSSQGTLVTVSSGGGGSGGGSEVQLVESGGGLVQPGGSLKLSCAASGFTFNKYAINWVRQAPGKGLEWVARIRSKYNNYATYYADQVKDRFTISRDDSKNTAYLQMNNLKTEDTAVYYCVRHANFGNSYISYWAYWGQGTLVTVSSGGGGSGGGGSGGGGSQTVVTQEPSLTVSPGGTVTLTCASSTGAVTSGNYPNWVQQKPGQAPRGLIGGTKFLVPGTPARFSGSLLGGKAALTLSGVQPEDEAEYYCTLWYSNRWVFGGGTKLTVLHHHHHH
T6 sequence (chain, as listed by the source): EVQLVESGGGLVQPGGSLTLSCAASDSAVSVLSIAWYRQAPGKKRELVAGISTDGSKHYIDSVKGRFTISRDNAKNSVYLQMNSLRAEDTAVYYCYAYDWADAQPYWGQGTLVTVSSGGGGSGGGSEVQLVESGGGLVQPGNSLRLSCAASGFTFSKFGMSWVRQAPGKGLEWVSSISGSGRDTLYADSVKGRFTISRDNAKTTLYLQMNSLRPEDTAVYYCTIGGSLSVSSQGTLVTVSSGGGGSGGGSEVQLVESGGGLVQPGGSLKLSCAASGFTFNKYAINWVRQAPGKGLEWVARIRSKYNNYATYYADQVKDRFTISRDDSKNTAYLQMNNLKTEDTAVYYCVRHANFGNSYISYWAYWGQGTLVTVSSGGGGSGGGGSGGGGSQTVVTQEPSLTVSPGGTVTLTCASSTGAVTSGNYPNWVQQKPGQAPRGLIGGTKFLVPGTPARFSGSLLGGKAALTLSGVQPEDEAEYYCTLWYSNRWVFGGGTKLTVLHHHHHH
T5 sequence (chain, as listed by the source): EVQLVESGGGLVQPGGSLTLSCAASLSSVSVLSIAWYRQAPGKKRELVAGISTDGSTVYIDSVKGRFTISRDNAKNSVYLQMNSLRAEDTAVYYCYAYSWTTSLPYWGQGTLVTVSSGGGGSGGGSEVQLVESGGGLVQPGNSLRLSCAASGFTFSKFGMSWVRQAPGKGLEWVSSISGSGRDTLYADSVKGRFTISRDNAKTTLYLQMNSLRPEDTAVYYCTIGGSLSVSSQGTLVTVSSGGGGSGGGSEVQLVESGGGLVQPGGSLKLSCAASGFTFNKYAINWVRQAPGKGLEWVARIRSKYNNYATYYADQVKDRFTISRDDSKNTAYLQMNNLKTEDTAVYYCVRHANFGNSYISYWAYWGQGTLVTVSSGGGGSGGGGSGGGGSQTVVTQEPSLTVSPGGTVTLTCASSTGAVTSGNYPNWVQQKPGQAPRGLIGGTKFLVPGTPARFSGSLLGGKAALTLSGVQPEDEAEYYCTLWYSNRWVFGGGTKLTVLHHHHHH
T12 sequence (chain, as listed by the source): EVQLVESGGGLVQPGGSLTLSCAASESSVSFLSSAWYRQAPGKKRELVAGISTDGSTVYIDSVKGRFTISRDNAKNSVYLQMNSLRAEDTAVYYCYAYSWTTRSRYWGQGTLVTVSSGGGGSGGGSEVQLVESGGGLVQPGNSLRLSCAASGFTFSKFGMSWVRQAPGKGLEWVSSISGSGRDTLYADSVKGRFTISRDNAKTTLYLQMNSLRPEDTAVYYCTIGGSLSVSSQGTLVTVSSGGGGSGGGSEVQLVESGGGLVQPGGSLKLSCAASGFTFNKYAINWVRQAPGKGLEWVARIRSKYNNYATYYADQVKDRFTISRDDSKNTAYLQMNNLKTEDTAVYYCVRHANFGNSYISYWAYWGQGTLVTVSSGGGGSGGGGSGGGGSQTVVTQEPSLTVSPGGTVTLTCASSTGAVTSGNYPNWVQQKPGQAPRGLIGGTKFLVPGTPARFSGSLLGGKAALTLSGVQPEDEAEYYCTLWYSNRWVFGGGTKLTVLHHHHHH
T9 sequence (chain, as listed by the source): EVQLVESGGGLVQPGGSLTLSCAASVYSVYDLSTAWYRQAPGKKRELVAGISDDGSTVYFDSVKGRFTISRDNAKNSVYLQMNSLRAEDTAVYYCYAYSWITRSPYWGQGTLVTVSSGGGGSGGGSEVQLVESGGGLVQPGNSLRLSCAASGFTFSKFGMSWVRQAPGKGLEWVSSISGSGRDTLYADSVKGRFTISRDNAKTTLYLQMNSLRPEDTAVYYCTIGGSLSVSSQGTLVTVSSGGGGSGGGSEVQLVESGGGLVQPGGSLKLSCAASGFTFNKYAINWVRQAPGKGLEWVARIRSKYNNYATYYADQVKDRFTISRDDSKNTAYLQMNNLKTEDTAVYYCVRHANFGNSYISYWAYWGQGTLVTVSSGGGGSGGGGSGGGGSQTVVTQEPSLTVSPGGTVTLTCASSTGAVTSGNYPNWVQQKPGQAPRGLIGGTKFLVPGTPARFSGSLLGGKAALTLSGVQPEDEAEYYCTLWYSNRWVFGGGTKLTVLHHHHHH
T4 sequence (chain, as listed by the source): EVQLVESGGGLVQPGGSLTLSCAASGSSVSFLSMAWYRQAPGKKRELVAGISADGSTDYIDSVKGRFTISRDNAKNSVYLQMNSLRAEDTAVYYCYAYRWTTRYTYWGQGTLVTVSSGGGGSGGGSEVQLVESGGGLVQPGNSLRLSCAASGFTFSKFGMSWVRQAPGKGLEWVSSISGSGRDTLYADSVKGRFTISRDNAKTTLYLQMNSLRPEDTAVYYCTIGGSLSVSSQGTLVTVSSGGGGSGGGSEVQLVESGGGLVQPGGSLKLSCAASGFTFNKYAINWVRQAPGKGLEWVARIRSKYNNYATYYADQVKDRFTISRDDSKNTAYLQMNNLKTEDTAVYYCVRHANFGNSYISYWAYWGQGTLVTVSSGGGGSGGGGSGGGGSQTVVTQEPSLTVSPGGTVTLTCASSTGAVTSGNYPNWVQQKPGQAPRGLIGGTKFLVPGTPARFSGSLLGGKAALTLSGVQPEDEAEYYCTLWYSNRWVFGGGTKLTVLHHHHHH
T13 sequence (chain, as listed by the source): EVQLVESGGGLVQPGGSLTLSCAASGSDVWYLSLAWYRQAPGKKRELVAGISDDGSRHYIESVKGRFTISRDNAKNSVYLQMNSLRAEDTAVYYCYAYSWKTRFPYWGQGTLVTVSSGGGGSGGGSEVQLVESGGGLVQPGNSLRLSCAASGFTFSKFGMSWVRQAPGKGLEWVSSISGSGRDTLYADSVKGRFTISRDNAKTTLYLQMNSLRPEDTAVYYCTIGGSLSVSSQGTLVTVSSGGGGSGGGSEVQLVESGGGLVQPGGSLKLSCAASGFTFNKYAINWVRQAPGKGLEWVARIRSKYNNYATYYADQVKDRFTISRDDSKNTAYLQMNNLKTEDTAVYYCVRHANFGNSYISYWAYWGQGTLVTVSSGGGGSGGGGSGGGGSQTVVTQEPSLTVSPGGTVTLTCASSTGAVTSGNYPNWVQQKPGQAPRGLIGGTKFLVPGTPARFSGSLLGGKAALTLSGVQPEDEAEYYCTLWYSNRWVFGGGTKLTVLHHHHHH

B1: 3C04 anti-DLL3 trispecific protein (other)
chain: EVQLVESGGGLVQPGGSLTLSCAASGSHVSFLSMAWYRQAPGKKRELVAGISADGPTDYIDSVKGRFTISRDNAKNSVYLQMNSLRAEDTAVYYCYAYRWDTRYTYWGQGTLVTVSS
notes: not shown: linker 1808, anti-albumin sdAb, linker 1808, anti-CD3 fragment, His6 1819
Usually Kd stands for the equilibrium constant for the complex coming apart. As to B1, the Kd in [1] amounted to 4.5 nM; with cynomolgus DLL3, 5.7 nM; in [3], 4 nM. Further, in assay [2], the “DMS-153 TDCC EC50” value worked out at 0.052 nM.

B2: 3A011 anti-DLL3 trispecific protein (other)
chain: B1 chain with H28S, M34L, A53T, P56S, D101R
notes: as for B1
Take B2: the Kd in assay [1] was found to be 6.8 nM; in the assay with cynomolgus DLL3, 8.8 nM; in [3] it was 7.3 nM.

B3: 4D09 anti-DLL3 trispecific protein (other)
chain: B1 chain with H28S, S30K, P56S, D61L, R99E, D101T
notes: as for B1
Consider B3, for which the dissociation constant (Kd) was determined as 4.7 nM in assay [1], 8.2 nM with cynomolgus DLL3 and 8.1 nM in assay [3]. Besides, the results for the “DMS-153 TDCC EC50” value in assay [2] and in [4] were 0.052 nM and 0.06 nM, respectively.

B4: 4H011 anti-DLL3 trispecific protein (other)
chain: B1 chain with H28S, F31R, A53V, P56S, D101T, Y104L
notes: also called 4H11; not shown: linker 1808, anti-albumin sdAb, linker 1808, anti-CD3 fragment, His6 1819
With B4, the “fold increase in TDCC potency compared to the parental DLL3 binder molecule (DH6)” value in [5] is greater than 8 fold. The Kd in assay [1] came to 4.5 nM; in the assay with cynomolgus DLL3, 5.7 nM; in [3], 3.9 nM. Further, the “DMS-153 TDCC EC50” value in assay [2] stood at 0.036 nM.

B5: 4D011 anti-DLL3 trispecific protein (other)
chain: B1 chain with H28S, S30R, A53V, P56S, D101R
notes: also called 4D11; not shown: linker 1808, anti-albumin sdAb, linker 1808, anti-CD3 fragment, His6 1819
B5: the dissociation constant Kd in [1] was determined as 5.8 nM. The “DMS-153 TDCC EC50” value in [4] was determined as 0.098 nM.

B6: 1H012 anti-DLL3 trispecific protein (other)
chain: EVQLVESGGGLVQPGGSLTLSCVASGSTSSINAMGWYRRAPGKQRELVAGISSDGSKVYVDSVKGRFTISRDNAKNSVYLQMNSLRAEDTAVYYCYYFRTVSGSSMPYWGQGTLVTVSS
notes: also called 1H12; not shown: linker 1808, anti-albumin sdAb, linker 1808, anti-CD3 fragment, His6 1819
B6: the “fold increase in TDCC potency compared to the parental DLL3 binder DH43” value in assay [5] is greater than 7 fold. For the same molecule, the dissociation constant Kd came to 3.5 nM in [1], 4.3 nM in the assay with cynomolgus DLL3 and 2.9 nM in assay [3]. Moreover, the “DMS-153 TDCC EC50” value in assay [2] is 0.028 nM; in [4], 0.063 nM.

B7: 2H02 anti-DLL3 trispecific protein (other)
chain: B6 chain with G35A, V48A, V60A, R99H, P107R
notes: as for B1
With B7, the Kd turned out to be 4.4 nM in assay [1], 5.2 nM with cynomolgus DLL3 and 4.4 nM in assay [3]. Moreover, the entries for the “DMS-153 TDCC EC50” value in assay [2] and in [4] were 0.031 nM and 0.096 nM, respectively.

B8: 2E02 anti-DLL3 trispecific protein (other)
chain: B6 chain with S30A, M106Q, P107R
notes: as for B1
B8: the results for the dissociation constant (Kd) (in [1]; with cynomolgus DLL3; in [3]) were 6 nM, 3.4 nM and 4.4 nM, respectively. Moreover, the entries for the “DMS-153 TDCC EC50” value in [2] and in assay [4] were 0.059 nM and 0.12 nM, respectively.

B9: 1A011 anti-DLL3 trispecific protein (other)
chain: B6 chain with M34I, V60I, M106Y, P107R
notes: also called 1A11; not shown: linker 1808, anti-albumin sdAb, linker 1808, anti-CD3 fragment, His6 1819
For the molecule B9, the dissociation constant Kd stood at 3.7 nM in [1], 3.6 nM with cynomolgus DLL3 and 3.5 nM in assay [3]. Moreover, the figures for the “DMS-153 TDCC EC50” value in assay [2] and in [4] were 0.051 nM and 0.17 nM, respectively.

B10: 2C04 anti-DLL3 trispecific protein (other)
chain: B6 chain with I31R, V58L, V60A, S102L, P107R
notes: as for B1
As to B10, the equilibrium dissociation constant (Kd) in assay [1] came to 6.8 nM. In assay [4], the “DMS-153 TDCC EC50” value was 0.043 nM.

B11: 2E05 anti-DLL3 trispecific protein (other)
chain: B6 chain with T28P, M34Y, V60S, P107S
notes: as for B1
In the case of B11, the Kd in assay [1] was determined as 3.9 nM; with cynomolgus DLL3, 4.8 nM; in assay [3], 3.5 nM. The “DMS-153 TDCC EC50” value in [2] is 0.033 nM; in assay [4], 0.072 nM.

B12: cynomolgus DLL3 protein (Example 6) (ligand)
chain: T3 sequence
notes: also called cyDLL3
In the case of B12, the Kd in [6] worked out at 11 nM; in assay [7] it was 1.5 nM; in [8], 1.6 nM; in assay [9], 3 nM; in assay [10], 1.6 nM; in [11], 1.9 nM. In addition, the Kd turned out to be 2 nM in assay [12], 1.7 nM in assay [13], 3.4 nM in [14] and 1.4 nM in assay [15].

For the origin of these results see patent publication US20240141072A1 (published 2024).
